Target: histidine tagged p85 with serine 83 mutated to alanine (p85^S83A) (UniProt P27986)
Test: cell-based or functional assay

Sequence of HA-14-3-3 zeta (hemagglutinin-tagged 14-3-3 zeta) (P63103 whole entry): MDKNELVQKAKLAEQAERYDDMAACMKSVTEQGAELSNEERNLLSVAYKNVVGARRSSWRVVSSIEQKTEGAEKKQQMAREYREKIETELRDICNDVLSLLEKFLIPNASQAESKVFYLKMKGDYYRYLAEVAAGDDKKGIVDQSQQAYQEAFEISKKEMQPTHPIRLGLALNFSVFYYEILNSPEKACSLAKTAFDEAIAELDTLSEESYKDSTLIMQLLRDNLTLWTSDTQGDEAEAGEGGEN

In the case of “HA-14-3-3 zeta (hemagglutinin-tagged 14-3-3 zeta) (from UniProt P63103 1-245)”, the decrease in activation of PI3K (production of PIP3 in PY20 immunoprecipitates) is reported as 35%.
